The target in experiment [1] is T1, human GLP-1 receptor (human, UniProt P43220 24-463). As to the kind of experiment: cell-based or functional assay.
Experiment [2] has as its target T1, human GLP-1 receptor. As to the kind of experiment: cell-based or functional assay. The source holds these as a separate data set.

Experimental findings from patent publication US20110229458A1 (published 2011) are described below.

Substitutions are numbered along the chain they refer to.

T1 sequence (P43220 24-463): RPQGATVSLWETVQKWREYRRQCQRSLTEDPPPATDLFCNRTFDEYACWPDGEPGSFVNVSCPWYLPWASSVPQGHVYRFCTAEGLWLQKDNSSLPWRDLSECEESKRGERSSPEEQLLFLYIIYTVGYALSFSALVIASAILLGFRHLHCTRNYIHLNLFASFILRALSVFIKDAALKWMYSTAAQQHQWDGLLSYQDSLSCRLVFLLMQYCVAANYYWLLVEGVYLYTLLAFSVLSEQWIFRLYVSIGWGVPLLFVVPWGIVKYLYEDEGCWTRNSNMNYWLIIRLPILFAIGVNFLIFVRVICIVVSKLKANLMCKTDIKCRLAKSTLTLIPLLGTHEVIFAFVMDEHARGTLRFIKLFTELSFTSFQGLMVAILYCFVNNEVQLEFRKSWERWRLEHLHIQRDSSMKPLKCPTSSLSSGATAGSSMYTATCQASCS

B1: DMS7148 (other)
chain: HGEGTFTSDVSSYLEGQAAKEFIADLVEGRGPSSDIQMTQSPSSLSASVGDRVTITCRASQWIGSQLSWYQQKPGKAPKLLIMWRSSLQSGVPSRFSGSGSGTDFTLTISSLQPEDFATYYCAQGAALPRTFGQGTKVEIKR
Consider B1, for which, in the experiment with human GLP-1 receptor [1], the “pEC50 (6CRE luciferase reporter, CHO 6CRE GLP1R cells)” value stood at 9.45.

B2: DMS7161 (other)
chain: B1 chain with A126L, A127R, L128H, R130K
Regarding B2, in the experiment with human GLP-1 receptor [2], the “EC50 (M) (luciferase reporter, CHO 6CRE GLP1R cells); preparation DMS7161 A” value is 3.4e-09 M; the “EC50 (M) (luciferase reporter, CHO 6CRE GLP1R cells); preparation DMS7161 B” value was determined as 1.6e-09 M; the “pEC50 (luciferase reporter, CHO 6CRE GLP1R cells); preparation DMS7161 A” value was 8.47; the “pEC50 (luciferase reporter, CHO 6CRE GLP1R cells); preparation DMS7161 B” value stood at 8.79.
